Test results from the RNAGym collection of RNA variant scans (doi:10.1093/nar/gkz1192).

B1: CPEB3 Ribozyme (parent)
chain: UAACAGGGGGCCACAGCAGAAGCGUUCACGUCGCAGCCCCUGUCAGAUUCUGGUGAAUCUGCGAAUUCUGCUGUAUAUCUC

Variants of: B1
Experiment: self-cleavage, relative activity (ratio to wild type); higher = more cleavage; in vitro, sequencing
Summary of the method: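 After error-prone PCR and barcoding, CPEB3 ribozyme mutant libraries were transcribed with T7 RNA polymerase at 37°C for 5 hours, then given 15 min with DNase I before an EDTA stop, and they cleaved during both steps. Reverse transcription with template switching preceded Illumina sequencing. Relative activity divides a variant's cleaved/total read fraction by the unmutated ribozyme's. At least 5 reads were required per variant, and three batches were averaged.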

Variant	self-cleavage
G10C U67C	0.37
G10C U67A	0.17
G10A G55U	0.07
G10A G55A	0.36
G10U U72C	0.22
G10C A45U	0.16
G10C A45G	0.13
G10C A15G	0.08
G10C A15U	0.08
G10U A20G	0.36
G9U G63A	0.08
G10U C50U	0.17
G10C U26G	0.39
G10C U26C	0.21
G10A U41C	0.31
G10A U41A	0.29
G10A U41G	0.38
G10A G42U	0.38
G10A G42C	0.16
G9U U60A	0.15
G9U U60C	0.06
G9U U25C	0.14
G9U A47G	0.29
G9U U26G	0.09

Variant	self-cleavage
G9U U26C	0.19
G9U A28G	0.11
G9U A28U	0.13
G10U C40U	0.06
G10C C44U	0.18
G10C U41A	0.33
G10C U41C	0.1
G10U A65G	0.19
G10U U69C	0.07
G10U U69A	0.18
C11A A75U	0.4
C11A A75G	0.36
G9U U48C	0.29
G10A U66C	0.2
G9U G19U	0.07
G10C U60A	0.12
G10A U48C	0.2
G10C G42U	0.16
C11A A13U	0.34
C11A A13G	0.09
G10U U51C	0.4
G10A C29U	0.13
G10A G33A	0.19
G10A A20U	0.23

Variant	self-cleavage
G10A A20G	0.3
G10A A20C	0.22
G10A G36A	0.26
G10C U80C	0.31
G10C U51C	0.22
G10U A13G	0.11
G10U A13U	0.1
G10C G73A	0.35
G9U U72A	0.09
G9U U72C	0.26
G10U U80C	0.23
G10U A47G	0.21
G10U G53U	0.24
G10A U76A	0.23
G10A U76C	0.33
C11A A18G	0.28
C11A A18C	0.4
C11A A18U	0.43
G10A A15U	0.2
G10A A15G	0.24
G10C U76C	0.19
G10A A64G	0.24
G10A A64U	0.15
G10A A64C	0.18

Variant	self-cleavage
G10C A64G	0.25
G10C A64U	0.15
C11A A47G	0.51
C11A A47U	0.27
G10C G33A	0.16
G10C G52A	0.2
G10A G24A	0.16
G10U U49A	0.31
G10U U49G	0.14
G10U U49C	0.24
G9U U31G	0.06
G9U U31C	0.13
G9U C37U	0.07
G10C C27U	0.15
G10A A21C	0.15
G10A A21U	0.13
G10A A21G	0.24
G9U A57G	0.25
G9U C40U	0.19
G9U C40A	0.14
G10A C71A	0.11
G10A C71U	0.08
G10A C71G	0.12
G9U C81U	0.27

Variant	self-cleavage
G10A C17G	0.3
G10A C17U	0.06
G10A C17A	0.23
G9U G52U	0.18
G10U U60C	0.38
G10U U60G	0.31
G10C U25C	0.07
G10U U74C	0.46
G10C A65G	0.33
G9U G36C	0.07
G9U G36A	0.15
G10U C37A	0.72
G10C C14U	0.5
G10A U58C	0.18
G10A U58A	0.24
G10A U54A	0.35
G10A U54G	0.16
G10A U54C	0.19
G10C C71A	0.12
G10U C62U	0.13
G10U C32U	0.21
G9U C29U	0.13
C11A	0.37
G10C A56G	0.15

Variant	self-cleavage
G10U U78C	0.39
G10C U66A	0.2
G10C U66C	0.15
G10U U25C	0.21
G10U U66A	0.18
G10C U43C	0.13
G10C U43A	0.38
G10C G24U	0.15
G9U A18U	0.2
G9U A18G	0.19
G10A A65U	0.14
G10A A65G	0.12
G10A A65C	0.09
G10A U31C	0.2
G10U A45C	0.14
G10U A15G	0.18
G10A C44U	0.21
G9U A20G	0.34
G10U U26C	0.28
G10U U26A	0.32
G10U A64G	0.07
G10U A64U	0.35
G10C U49A	0.2
G10C U49C	0.22

Variant	self-cleavage
G10C U49G	0.17
G9U A56C	0.29
G9U A56U	0.29
G9U A56G	0.14
G10A G61C	0.09
G10C A75G	0.24
G10A A77G	0.08
G10A A77U	0.04
G10C A21G	0.18
C11A A21G	0.24
G9U A77U	0.16
G9U G24C	0.11
G10U U43C	0.34
G10A U78G	0.33
G10A U78C	0.24
G9U A75G	0.13
G9U A75U	0.17
G10U U67C	0.12
G9U U67C	0.24
G9U U67A	0.11
G10A U67C	0.25
G10C A28C	0.16
G10C A28G	0.14
